Assay results taken from patent US8541373B2, “BChE albumin fusions for the treatment of cocaine abuse” (priority 2009, dated 2013).
Values joined by “and” are separate entries in the source; they are usually repeats but may differ in a detail not shown here. Equal values may be shown once.

Assays:
[1] = AlbuBChE serum pharmacokinetics after single IM dose (ELISA); conditions: for tmax: group value
Method: The study included a total of 11 naïve, adult male cynomolgus monkeys divided into four dose groups: • a control group of two cynomologus monkeys that only received a single IV dose of cocaine; • three dose groups that were treated with a single IM dose of AlbuBChE at 0.2, 1 or 5 mg/kg. Three naïve, adult male cynomolgus monkeys were used in each dose group. Following AlbuBChE treatment, a 1 mg/kg IV dose of cocaine was administered at 2, 48, 96, 120, and 240 hours after AlbuBChE dose administration.
A single intramuscular (IM) administration of AlbuBChE was administered on study day 1 and blood was collected at the time points outlined in Table 2. Approximately 0.5 mL of whole blood was collected from the femoral vein into serum separate tubes (SST).
Blocking is done with 2% Casein in 1×PBS, 200 μL/well, 2 hours at room temperature. After washing, 100 μL of diluted serum samples are added to the plates along with standards. Standards are generated through 3.64 fold, serial dilution of AlbuBChE from 2000 to 3.1 ng/mL. Serum samples and standards are maintained at 10% serum by dilution with buffer containing pooled cynomolgus monkey serum. A wash step precedes detection with 100 μL of anti-HSA mAb-6502-HRP at 0.04 μg/mL for 1 hour. Wells are washed again, prior to developing with 100 μl of TMB substrate. After 15 minutes, the reaction is terminated with 100 μL/well of 1N H2SO4 and read on SpectraMax plate reader at 450/570 nm. Values for unknown serum samples are calculated by interpolation of standard curve generated by 4-parameter fit of AlbuBChE standards. The limit of quantitation in cynomolgus serum was 21.1 ng/mL.
AlbuBChE pharmacokinetic parameter values were determined using serum concentration-time profiles for individual animals. The computer software WinNonlin Professional (Version 4.0.1 Pharsight Corporation, USA) was used. Specifically the model for non-compartmental analysis with extravascular input was applied. If there were fewer than 3 data points in the terminal phase of the serum concentration curve, a terminal phase half-life and PK parameters derived from the half-life were not calculated for that profile. Parameters analyzed include tmax, Cmax, t1/2, AUC(0-t) and AUC(0-∞) were calculated.

[2] = rats; cited from earlier work

Substance: AlbuBChE
- AlbuBChE serum concentration, individual animals ([1]; 1.0 mg/kg IM, 24 hr post dose): 630.1 ng/mL and 673.8 ng/mL and 572.1 ng/mL
- Mean AlbuBChE serum concentration ([1]; 1.0 mg/kg IM, 24 hr post dose): 625 ng/mL
- AlbuBChE serum concentration, individual animals ([1]; 1.0 mg/kg IM, 36 hr post dose): 373.4 ng/mL and 471.7 ng/mL and 348.2 ng/mL
- Mean AlbuBChE serum concentration ([1]; 1.0 mg/kg IM, 36 hr post dose): 398 ng/mL
- AlbuBChE serum concentration, individual animals ([1]; 1.0 mg/kg IM, 48 hr post dose): 289.4 ng/mL and 362.7 ng/mL and 264.4 ng/mL
- Mean AlbuBChE serum concentration ([1]; 1.0 mg/kg IM, 48 hr post dose): 306 ng/mL
- AlbuBChE serum concentration, individual animals ([1]; 1.0 mg/kg IM, 72 hr post dose): 122.1 ng/mL and 235.0 ng/mL and 133.0 ng/mL
- Mean AlbuBChE serum concentration ([1]; 1.0 mg/kg IM, 72 hr post dose): 163 ng/mL
- AlbuBChE serum concentration, individual animals ([1]; 1.0 mg/kg IM, 96 hr post dose): 87.0 ng/mL and 131.7 ng/mL and 75.3 ng/mL
- Mean AlbuBChE serum concentration ([1]; 1.0 mg/kg IM, 96 hr post dose): 98.0 ng/mL
- AlbuBChE serum concentration, individual animals ([1]; 1.0 mg/kg IM, 128 hr post dose): 36.2 ng/mL and 72.0 ng/mL and 38.1 ng/mL
- Mean AlbuBChE serum concentration ([1]; 1.0 mg/kg IM, 128 hr post dose): 48.8 ng/mL
- AlbuBChE serum concentration, individual animals ([1]; 1.0 mg/kg IM, 144 hr post dose): 27.4 ng/mL and 47.7 ng/mL and 31.5 ng/mL
- Mean AlbuBChE serum concentration ([1]; 1.0 mg/kg IM, 144 hr post dose): 35.5 ng/mL
- AlbuBChE serum concentration, individual animals ([1]; 1.0 mg/kg IM, 168 hr post dose): <LLOQ (2×) and 39.5 ng/mL
- Mean AlbuBChE serum concentration ([1]; 1.0 mg/kg IM, 168 hr post dose): <LLOQ
- AlbuBChE serum concentration, individual animals ([1]; 1.0 mg/kg IM, 216 hr post dose): <LLOQ
- Mean AlbuBChE serum concentration ([1]; 1.0 mg/kg IM, 216 hr post dose): <LLOQ
- AlbuBChE serum concentration, individual animals ([1]; 1.0 mg/kg IM, 264 hr post dose): <LLOQ
- Mean AlbuBChE serum concentration ([1]; 1.0 mg/kg IM, 264 hr post dose): <LLOQ
- tmax ([1]; 1.0 mg/kg IM): 3 h
- AUC % Extrap, individual animals ([1]; 5 mg/kg IM): 1.86% and 0.938% and 1.85%
- AUC(0-t), individual animals ([1]; 5 mg/kg IM): 201.754 µg·h/mL and 437.848 µg·h/mL and 235.983 µg·h/mL
- AUC(0-∞), individual animals ([1]; 5 mg/kg IM): 205.584 µg·h/mL and 441.992 µg·h/mL and 240.442 µg·h/mL
- Cmax, individual animals ([1]; 5 mg/kg IM): 6016 ng/mL and 17687 ng/mL and 6530 ng/mL
- Tmax, individual animals ([1]; 5 mg/kg IM): 6 h
- t½, individual animals ([1]; 5 mg/kg IM): 63.4 h and 56.4 h and 65.5 h
- Dose Normalized AUC(0-∞) ([1]; 5.0 mg/kg IM): 59201
- Dose Normalized Cmax ([1]; 5.0 mg/kg IM): 2016
- Mean AUC % Extrap ([1]; 5.0 mg/kg IM): 1.55%
- Mean AUC(0-t) ([1]; 5.0 mg/kg IM): 291.862 µg·h/mL
- Mean AUC(0-∞) ([1]; 5.0 mg/kg IM): 296.006 µg·h/mL
- Mean Cmax ([1]; 5.0 mg/kg IM): 10078 ng/mL
- Mean t½ ([1]; 5.0 mg/kg IM): 62 h and 61.8 h
- AlbuBChE serum concentration, individual animals ([1]; 5.0 mg/kg IM, 1 hr post dose): 2580.0 ng/mL and 6570.9 ng/mL and 3821.0 ng/mL
- Mean AlbuBChE serum concentration ([1]; 5.0 mg/kg IM, 1 hr post dose): 4324 ng/mL
- AlbuBChE serum concentration, individual animals ([1]; 5.0 mg/kg IM, 3 hr post dose): 4899.0 ng/mL and 12683.9 ng/mL and 6024.0 ng/mL
- Mean AlbuBChE serum concentration ([1]; 5.0 mg/kg IM, 3 hr post dose): 7869 ng/mL
- AlbuBChE serum concentration, individual animals ([1]; 5.0 mg/kg IM, 6 hr post dose): 6016.0 ng/mL and 17686.8 ng/mL and 6530.3 ng/mL
- Mean AlbuBChE serum concentration ([1]; 5.0 mg/kg IM, 6 hr post dose): 10078 ng/mL
- AlbuBChE serum concentration, individual animals ([1]; 5.0 mg/kg IM, 12 hr post dose): 4178.0 ng/mL and 11105.8 ng/mL and 5091.0 ng/mL
- Mean AlbuBChE serum concentration ([1]; 5.0 mg/kg IM, 12 hr post dose): 6792 ng/mL
- AlbuBChE serum concentration, individual animals ([1]; 5.0 mg/kg IM, 24 hr post dose): 2836.0 ng/mL and 5034.0 ng/mL and 3325.0 ng/mL
- Mean AlbuBChE serum concentration ([1]; 5.0 mg/kg IM, 24 hr post dose): 3732 ng/mL
- AlbuBChE serum concentration, individual animals ([1]; 5.0 mg/kg IM, 36 hr post dose): 1572.0 ng/mL and 2929.0 ng/mL and 1901.0 ng/mL
- Mean AlbuBChE serum concentration ([1]; 5.0 mg/kg IM, 36 hr post dose): 2134 ng/mL
- AlbuBChE serum concentration, individual animals ([1]; 5.0 mg/kg IM, 48 hr post dose): 1329.7 ng/mL and 2644.4 ng/mL and 1604.9 ng/mL
- Mean AlbuBChE serum concentration ([1]; 5.0 mg/kg IM, 48 hr post dose): 1860 ng/mL
- AlbuBChE serum concentration, individual animals ([1]; 5.0 mg/kg IM, 72 hr post dose): 637.7 ng/mL and 1190.8 ng/mL and 723.6 ng/mL
- Mean AlbuBChE serum concentration ([1]; 5.0 mg/kg IM, 72 hr post dose): 851 ng/mL
- AlbuBChE serum concentration, individual animals ([1]; 5.0 mg/kg IM, 96 hr post dose): 415.1 ng/mL and 732.6 ng/mL and 454.7 ng/mL
- Mean AlbuBChE serum concentration ([1]; 5.0 mg/kg IM, 96 hr post dose): 534.1 ng/mL and 534 ng/mL
- AlbuBChE serum concentration, individual animals ([1]; 5.0 mg/kg IM, 128 hr post dose): 217.2 ng/mL and 325.9 ng/mL and 224.3 ng/mL
- Mean AlbuBChE serum concentration ([1]; 5.0 mg/kg IM, 128 hr post dose): 255.8 ng/mL and 256 ng/mL
- AlbuBChE serum concentration, individual animals ([1]; 5.0 mg/kg IM, 144 hr post dose): 158.4 ng/mL and 254.7 ng/mL and 163.3 ng/mL
- Mean AlbuBChE serum concentration ([1]; 5.0 mg/kg IM, 144 hr post dose): 192.1 ng/mL and 192 ng/mL
- AlbuBChE serum concentration, individual animals ([1]; 5.0 mg/kg IM, 168 hr post dose): 118.9 ng/mL and 165.5 ng/mL and 130.4 ng/mL
- Mean AlbuBChE serum concentration ([1]; 5.0 mg/kg IM, 168 hr post dose): 138.3 ng/mL and 138 ng/mL
- AlbuBChE serum concentration, individual animals ([1]; 5.0 mg/kg IM, 216 hr post dose): 73.7 ng/mL and 91.6 ng/mL and 79.4 ng/mL
- Mean AlbuBChE serum concentration ([1]; 5.0 mg/kg IM, 216 hr post dose): 81.6 ng/mL
- AlbuBChE serum concentration, individual animals ([1]; 5.0 mg/kg IM, 264 hr post dose): 41.9 ng/mL and 50.9 ng/mL and 47.2 ng/mL
- Mean AlbuBChE serum concentration ([1]; 5.0 mg/kg IM, 264 hr post dose): 46.7 ng/mL
- tmax ([1]; 5.0 mg/kg IM): 6 h
- Side effects of intravenous administration [2]: modest increase in blood pressure and mild lethargy
